Common to all, as to assay: ITC
The target in data set [1] is YFP (UniProt P42212).
Data set [2] addresses sfGFP (super folder GFP) (UniProt P42212).
Data set [3] has as its target mEGFP (monomeric enhanced GFP) (UniProt P42212).
For data set [4], the target named is mVenus (UniProt P42212).

“GGGAGCUUCUGGACUGCGAUGGGAGCACGAAACGUCGUGGCGCAAUUGGGUGGGGAAAGUCCUUAAAAGAGGGCCACCACAGAAGCUCCC [free RNA aptamer against GFP family]”: the Kd was 4 nM in data set [1], 13 nM in data set [2], 5 nM in data set [3] and 5 nM in data set [4].

A word on the Kd: it is the constant that tells how readily two partners part at equilibrium.

The values above are taken from paper PMC7895908.
